In patent publication US20220025021A1 (BETH ISRAEL DEACONESS MEDICAL CENTER, published 2022):
Where a chain is given by its changes, count along the chain named.

B1: MS-105 (antibody)
VH: not shown
VL: DIVLTQSPLSLSVTPGESASISCKSSHSLIHGDRNNYLAWYVQKPGRSPQLLIYLASSRASGVPDRFSGSGSDKDFTLKISRVEAEDVGTYYCMQGRESPWTFGQGTKVDIKRTVAAPSVFIFPPSDEQLKSGTASVVCLLNNFYPREAKVQWKVDNALQSGNSQESVTEQDSKDSTYSLSSTLTLSKADYEKHKVYACEVTHQGLSSPVTKSFNRGEC
B2: MS-117 (antibody)
VH: not shown
VL: B1 VL with I2F, S18P, D73G
B3: MS-118 (antibody)
VH: not shown
VL: B1 VL with S18P, D73G
B4: MS-114 (antibody)
VH: not shown
VL: B1 VL with S18P
B5: MS-109 (antibody)
VH: not shown
VL: B1 VL with I2F, S18P, D73G, A85T
B6: MS-110 (antibody)
VH: not shown
VL: B1 VL with I2F, S18P
B7: MS-107 (antibody)
VH: not shown
VL: B1 VL with L9H, S18P
B8: MS-106 (antibody)
VH: not shown
VL: B1 VL with L9H, S18P, D73G, A85T
B9: MS-116 (antibody)
VH: not shown
VL: B1 VL with L9H, S18P, D73G
B10: MS-108 (antibody)
VH: not shown
VL: B1 VL with L9H, D73G
B11: MS-113 (antibody)
VH: not shown
VL: B1 VL with S18P, D73G, A85T
B12: MS-111 (antibody)
VH: not shown
VL: B1 VL with I2F, D73G
B13: MS-115 (antibody)
VH: not shown
VL: B1 VL with D73G
B14: MS-112 (antibody)
VH: not shown
VL: B1 VL with I2F, L9H, S18P, D73G

How the values were obtained:
Assay in all cases: cell-based or functional assay
[1] = target: HIV-1 pseudovirus Ce1176_A3 (envelope glycoprotein) (HIV-1)
[2] = target: HIV-1 pseudovirus SC05.8C11.2344 (envelope glycoprotein) (HIV-1)
[3] = target: HIV-1 pseudovirus X1193_c1 (envelope glycoprotein) (HIV-1)
[4] = target: HIV-1 pseudovirus AC10.0.29 (envelope glycoprotein) (HIV-1)
[5] = target: HIV-1 pseudovirus 6952.v1.c20 (envelope glycoprotein) (HIV-1)
[6] = target: HIV-1 pseudovirus 263-8 (envelope glycoprotein) (HIV-1)

Binder	neutralization IC50 [1]	neutralization IC80 [1]	neutralization IC50 [2]	neutralization IC80 [2]	neutralization IC50 [3]	neutralization IC80 [3]	neutralization IC50 [4]	neutralization IC80 [4]	neutralization IC50 [5]	neutralization IC80 [5]	neutralization IC50 [6]	neutralization IC80 [6]
B1	0.172 µg/mL	3.39 µg/mL	0.794 µg/mL	2.73 µg/mL	0.067 µg/mL	0.417 µg/mL	0.051 µg/mL	0.394 µg/mL	0.706 µg/mL	9.49 µg/mL	0.017 µg/mL	0.062 µg/mL
B2	0.113 µg/mL	2.17 µg/mL	0.432 µg/mL	1.48 µg/mL	0.064 µg/mL	0.226 µg/mL	0.051 µg/mL	0.252 µg/mL	0.208 µg/mL	3.84 µg/mL	0.01 µg/mL	0.029 µg/mL
B3	0.26 µg/mL	8.12 µg/mL	0.449 µg/mL	1.54 µg/mL	0.085 µg/mL	0.287 µg/mL	0.056 µg/mL	0.273 µg/mL	0.392 µg/mL	12.2 µg/mL	0.011 µg/mL	0.039 µg/mL
B4	0.139 µg/mL	7.39 µg/mL	0.81 µg/mL	3.86 µg/mL	0.124 µg/mL	0.404 µg/mL	0.066 µg/mL	0.313 µg/mL	0.146 µg/mL	1.37 µg/mL	0.018 µg/mL	0.066 µg/mL
B5	0.078 µg/mL	5.83 µg/mL	0.546 µg/mL	1.85 µg/mL	0.073 µg/mL	0.467 µg/mL	0.04 µg/mL	0.199 µg/mL	0.188 µg/mL	1.74 µg/mL	0.01 µg/mL	0.033 µg/mL
B6	0.097 µg/mL	2.5 µg/mL	0.914 µg/mL	3.1 µg/mL	0.106 µg/mL	0.677 µg/mL	0.076 µg/mL	0.285 µg/mL	0.195 µg/mL	2.12 µg/mL	0.01 µg/mL	0.038 µg/mL
B7	0.147 µg/mL	3.99 µg/mL	0.658 µg/mL	2.28 µg/mL	0.13 µg/mL	0.57 µg/mL	0.079 µg/mL	0.397 µg/mL	0.457 µg/mL	8.87 µg/mL	0.016 µg/mL	0.055 µg/mL
B8	0.099 µg/mL	3.43 µg/mL	0.411 µg/mL	1.44 µg/mL	0.093 µg/mL	0.394 µg/mL	0.062 µg/mL	0.299 µg/mL	0.216 µg/mL	3.8 µg/mL	0.011 µg/mL	0.039 µg/mL
B9	0.145 µg/mL	3.12 µg/mL	0.456 µg/mL	1.62 µg/mL	0.064 µg/mL	0.222 µg/mL	0.052 µg/mL	0.258 µg/mL	0.341 µg/mL	7.51 µg/mL	0.011 µg/mL	0.042 µg/mL
B10	0.117 µg/mL	3.84 µg/mL	0.428 µg/mL	1.45 µg/mL	0.083 µg/mL	0.545 µg/mL	0.045 µg/mL	0.216 µg/mL	0.323 µg/mL	3.37 µg/mL	0.012 µg/mL	0.042 µg/mL
B11	0.182 µg/mL	6.05 µg/mL	0.573 µg/mL	1.94 µg/mL	0.098 µg/mL	0.421 µg/mL	0.052 µg/mL	0.245 µg/mL	0.351 µg/mL	5.03 µg/mL	0.018 µg/mL	0.052 µg/mL
B12	0.082 µg/mL	3.12 µg/mL	0.496 µg/mL	1.69 µg/mL	0.109 µg/mL	0.352 µg/mL	0.061 µg/mL	0.258 µg/mL	0.213 µg/mL	2.1 µg/mL	0.016 µg/mL	0.045 µg/mL
B13	0.18 µg/mL	6.3 µg/mL	0.436 µg/mL	1.51 µg/mL	0.08 µg/mL	0.274 µg/mL	0.049 µg/mL	0.249 µg/mL	0.303 µg/mL	4.7 µg/mL	0.013 µg/mL	0.037 µg/mL
B14	0.068 µg/mL	2.03 µg/mL	0.501 µg/mL	1.68 µg/mL	0.069 µg/mL	0.293 µg/mL	0.056 µg/mL	0.262 µg/mL	0.16 µg/mL	1.47 µg/mL	0.013 µg/mL	0.037 µg/mL
